Reference: the DeepSol protein solubility set

Test: soluble on expression in E. coli; label from the status in PepcDB or PDB records

Row | Sequence | soluble on expression in E. coli
1 | MYRAWDPSLTTIDSFLVNELLLHAHPTKTPPEVTEGQTPSSSSSSSTDSGRETMLEEEEAACCDLDSELARIGDENTAEIRELCLPLEIDSRCNLCAIVSICLRRDPQQKWLLDYCFLCHKCAAAPRTAMATLIVATEFLHLMKLHFRDIAFDNIFKERIVTIFDFHAHFFINRCYTQRDEHPVMVENITLAHMAVTRALLTDDDAVPYTKRRKIQYKLPKKPAPAEPEELRLLDKYRRATEGSFARVLFYIWSGTNVMFNTTLTDLAIKKSKALKALKTRQSEIEPSVGPVFLSPIPTFRLRNATTTVCLLCELMACSYRDNVFLQQLRERITNYSRNNLKIIDRTQLTMAEILSHGRNSEFPQQLKNKDVSIYVTSSPETLAAASRPGTEEPFELSALTYLVLRQVGVIGVYKHLFADPLCAANMRSTDPNILFFDVPNEYLNEAKLAICSTNAYPSRVERDFWLYAHMFKAFQIIKRNFKTKTQLSDFLRDFSQVLESHDFSLVDPSFTVEKYV | not soluble
2 | MNTLLSLMNSIEQEARTIYDSYDAKKKALADKKEEELKQLFLEYEQETQLLLEAKREVFFEANRQEQKASKKRLATQQLALHAILEEHKLTVVRELVDKVVETYGH | not soluble
3 | MGSDKIHHHHHHMVVIEFKNVSKHFNLYKNKSYSLKEKFLNKVLNRNKLEVEQLHVLKNASFKIGQGETIGIIGENGTGKSTSLKLVANIIRPNEGQVTVKGKISSLLEVGVGFQPDMTGRENVYLYGSIMGLSKKEIDERYDEIVEFAELENFMDTPVKNYSSGMYMRLGFSVAVTVNPDILLVDEVLAVGDANFQKKCLNKIQAFKEQGKTILFVSHDMSTVRRICDRCIFIRKGGEVIEGSTDRMVGLYMKLLYAKSEEHKKEEQKSEESLADFDFKLHEADEFKDGNREGNKKLEITKLYFSDKEGRPRNFFGTEENIKVNVEFRKNTDIKAAVMAFEIITEEGYKLIYHDCKQDGMLITEMKDTNMVSFSLQNELLLKSKYYFSIALMDENLQEIYDFRHKHYWFTIHEGNIKEDGKVKISCDWML | not soluble
4 | MATFASRELTEEDDSHPGPSEKSEKDVLGIVRTGPKKLITGESSSLFKLKNELLKRKDRLNSEVHIKHTETHVSGKSNLLSTKKEEKERQARKDESRKLRIEKNERAVRREEDEARLMAAQQKLREKSELYDRMQEGNVVLANLDDTPVEFLVDFGTKKRRIEEERAWERERYREQEEAAPIGFGRAPIPEHYHHSEEQRVYGTSHMRLSLNENKRKEEIEKLLEMSKKTDMDKAKKKETEKHRDILRREKLNKLRAKHGLELLPEIVEPVAVPASQIDLNSIPLPGQKETPEERHARLMKSDREWDRGKGHYTTWIEKQRDERDDEFRPPDSYFR | soluble
5 | MPKRSKEDTEITIQKIMDAVVDQLLRLGYDKMSYTTLSQQTGVSRTGISHHFPKKTDFTAALDGRIFKMFIEHLEFEKGLDAFSQSWIKALEDSEFLAILRLLFHHIVTSESAHEFAANGIDRLYKMVESQFGSGGDKELEWLIGRSLIQMSK | not soluble
6 | MAAIHINHDVFNKYHTNGKLRLTTGYVQEAIENNGYPGHDGIVQVLKGKVEQGEQLGHAFTFRIRISDGVFQYNALMSADIDDQIKREVEHLVEGTIIALTKFEIYDQGEGAKNCFLIKGYKILSRYHQVLTSPEVKPRSHSGKPDEHKGYRPNIIIEDVWPEAEGMAADYQENMANPPAAKAPKREFGEEASYNRAAAPEATRARAVPPPARRTASNTERGVMPIAMVTPYVSNFKIHGMVSRKEEIRTFPAKNTKVFNFEITDSNGDTIRCTAFNEVAESLYTTITENLSYYLSGGSVKQANKKFNNTGHDYEITLRSDSIIEAGGELLAAPKLILKRVKLGEIAGYAGQLIDVLVVVEKMDPEATEFTSKAGKSLIKREMELIDESGALVRLTLWGDEATKALVDDYVQKVIAFKGVIPREFNGGFSLGTGSATRIISVPEIAGVSELYDWYANVKPTTEVKMMSQAAGGSNEAPRTIAGLQEMQFGKDSDKGDYATVKAMITRVNPTNALYRGCASEGCQKKLVGENGDYRCEKCNKNMNKFKWLYMMQFELSDETGQVYVTAFGDSAAKIVGKSAAELGELHDESPDEYNAIFERLQFVPKMWRLRCKMDSYNEEVRQKMTVYGVDDVNQDKYIENLKQMIEQMQQMSDY | soluble
7 | MAHHHHHHMKLLLQADTPGGAAEREANPKYLSTDTLIIVPGHGVLNAPNASEWKNESEWCLEPHQLRAGVVLPLCFASHIRRGLEILRDQINTSILIFSGGQTCGIAGPRSEALGYYIVAKESKLFGIFEPEYVAKDIMNGRIFTEEFARDSYENLLFSIARFYEVTGHFPGSVVVVGWKHKAERFTMYHREAIRFPADKFTYVGLDFADAEPFVEDLQPYQVAKPYTDENALSSVSKDMYLCDAGRRTRSKRNPYFRVPPYLVSCPPLRQLLQHCGPELIDTRRVPWK | not soluble
8 | MIPKSTGYLADLNIHWKNYIQYLHKIEVAPKTKLQLLHDVANRIFIVESGSVRMGFEKDGKDITLQFFFEDELVASVESLFNQTPSKYFIETIEHSTIYYLTKEMLEVMALKLPEMANITQDILMSRLIYYSNHLHSYISETPEQRFNKLIETRPYIFMRVSQRHIASYLGITNVSLSRIKARKSVVYDQQPATVSVAEADNEEYLKS | not soluble
9 | MELKDDDFEKISELGAGNGGVVFKVSHKPSGLVMARKLIHLEIKPAIRNQIIRELQVLHECNSPYIVGFYGAFYSDGEISICMEHMDGGSLDQVLKKAGRIPEQILGKVSIAVIKGLTYLREKHKIMHRDVKPSNILVNSRGEIKLCDFGVSGQLIDSMANSFVGTRSYMSPERLQGTHYSVQSDIWSMGLSLVEMAVGRYPIPPPDAKELELMFGCQVEGDAAETPPRPRTPGRPLSSYGMDSRPPMAIFELLDYIVNEPPPKLPSGVFSLEFQDFVNKCLIKNPAERADLKQLMVHAFIKRSDAEEVDFAGWLCSTIGLNQPSTPTHAAGVLEHHHHHH | soluble
10 | MSSILTNNGAMVALQTLKSVNMNLGQTQNAISTGKNVATAKDNSAVWAISKVMESDVKGFKAIKDSLSLGESTVAVARNAAETVTDLLTQMKGKIVAAQEDNVDRNKINADVTALKDQISAVVGAAQFNGLNLVDGTAASASVLSSLDRDNAGNVTASSITVTGQNLSTGGYTAKAVFDATNTDGVSADGQDTFGFSLDANGGTDDNGQIEFEPQGTAAYAAGDSFTIRLGDTEVNYTVTAEDIASTSQADVIAVGMKAAIEASGANVTVDYNAANSGRLVITNDGTDSLQVSGQFSNANSGGLGALAAIDVSNSAGAAAALGSIETLIDTSIDAAAAFGSVQGRIETQKTFISNLTDSLKSGIGSMVDADMEEVSARLQALQVQQQLAVQSLSIANQAPQSILSLFR | not soluble
11 | EVVVVGYGTMKRSDLTGSVASIAAKDVEGFKTSSVAGALGGQIAGVQITSTDGTPGAGFSINIRGVGTLTGDSSPLYIVDGFEVDDIDYLSNSDIESIEVLKDASSSAIYGARAANGVVLITTKSGK | not soluble
12 | MTTKDEVKTLWKLCFNDSDEFTDLYFKMRYKDEVNRVIREDGKIISALQMIPYPMTFCDEVISTSYISGACTHPDYRKHGAMKRLLKETHRCMYEDGVLLASLIPAEEWLFGYYARSGYAPVFGYAVEQVRVDRLCPAPGCRIEVCEFPGVEHYHYFDSRMHGRRSCIQHPKEDFLVIMADLRLGNGKLLVAWEADKIVGMAFTVMGDDTLYIKELLADTDAVQDTLLYEAAHIYKVQRMDYFIPSSADTLFLGMARVIRAEELLKVFAHKYPASELYIHIEGDEAIQENNGYYTVRDGFCFRERVPEKKYHTYTLDGFTRLLLEAEHPYMSLMLN | soluble
13 | MGSDKIHHHHHHMSDVIEQYFVKNEPYYRPVADEVKLYEAAYSVRMPMMLKGPTGCGKTRFVEYMAWKLGKPLITVACNEDMTASDLVGRFLLDAQGTRWQDGPLTTAARYGAICYLDEVVEARQDTTVVIHPLTDNRRVLPLEKKGELVGAHPDFQLVISYNPGYQSLMKDLKQSTKQRFGALDFNYPQHDIETEIVSHETGIDSAIADKLVSIAERARNLKGHGLDEGISTRMLIYAGNLIAKGVDVHAACRMALVRPITDDPDMRDALDAAVTTFF | not soluble
14 | MKVSQVFISAISVFGLATSVNAQNASNTTSNAAPALHAQNGQLLNAGVVGAAVGGALAFLI | soluble
15 | MSVNFSPCVLIPCYNHGAMMPGVLARLKPFNLPCIVVDDGSDATTQQQLDSLLAEQPGVTLIRLAENAGKGAAVMRGLQAAADAGFSHAVQVDADGQHAIEDIPKLLALAEQQPAALISGQPIYDDSIPRSRLYGRWVTHVWVWIETLSLQLKDSMCGFRVYPVAPTLQLAKHATIGKRMDFDTEVMVRLYWQGNTSYFVPTRVTYPLDGLSHFDALKDNVRISLMHTRLFFGMLPRIPSLLMRRSSCHWARQSEVKGLWGMRLMLLVWRLLGRTAFSALLYPVVGVYWLTASRARKASQDWLARVRQHQPQAAKLNSYQHFLRFGNAMLDKIASWRGELQPGRDVLFAPGAEAALDVRDPRGKLLLASHLGDVEVCRALAKIQGYKTINALVFSENAQRFKQIMQEMAPQAGINLMPVTDIGPETAILLKEKLDNGEWVAIVGDRIAVNPQRGGDWRVCWSSFMGQPAPFPQGPFILASILRCPVNLIFALRQHGKLHIHCESFADPLQLPRGERQQALQNAIDHYAARLEHYALQSPLDWFNFFDFWQLPEIQDKE | not soluble
16 | MGHHHHHHSHMSLSSSACPLLLTLRDHLLQLEQQLCFSLFKIFWQMLVEKLDVYIYQEIILANHFNEGGAAQLQFDMTRNLFPLFSHYCKRPENYFKHIKEACIVLNLNVGSALLLKDVLQSASGQLPATAALNEVGIYKLAQQDVEILLNLRTNWPNTGK | not soluble
17 | MGSDKIHHHHHHMDTAKTKPFDEMFLQDEVIRPIYAEYAAWLQDVPHQQLESKRQEAELLFRRVGITFNVYGEDAGAERLIPFDVVPRILSASEWARLSDGAIQRVKALNMFLHDVYHDQEIIKAGIVPSSILANAQYRPEMFGVDVPGGVYAHIAGVDLVRTGENDFYVLEDNLRTPSGVSYMLENRKMMMRLFPELFRRYPVAPVEHYPQVLLNNLRAVAQAGVHEPTVVLLTPGAYNSAYFEHAFIAQQMGIELVEGQDLFVRNNAVYMRTTEGPKRVDVIYRRIDDDFIDPLSFRPDSMLGVPGLLSVYRNGGVTLANAVGTGVADDKDTYIYVPEMIRFYLGEEPILSNVPTYQLSKADDLKYVLDNLAELVVKEVQGSGGYGMLVGPAASKQELEDFRQRILANPANYIAQPTLALSTCPTLVETGIAPRHVDLRPFVLSGKTVSLVPGALCRVALREGSLVVNSSQGGGTKDTWILKD | not soluble
18 | MGSDKIHHHHHHMSQQQPPAPVEGYQDMVHAAESQFDREQFKQLLMDMVNIPSPTGEEAELARYMADHMTANGLQGQTQYLDDQQANAIGKLPSRSKQGPELLLYASFDTHLGGSDEEERWAGQPLPSMLRPQARLEGDEISGLGAENPKAYAACVTTAATCIAKAGLELPGELTVGLGAGGMTALSRPGFSRRNIGHGAGVMFMLQRGYRPDYCVMCKPVYAVAWEEVGICNFTIRVKGAMGYVGVRHMMPQDQNPFPQVAKVIEALEAWFPTYTARHTSGLVAPQGGISAIEGGWPHKPIITTADVVLHVDIRPSPRTDPVQVKRELQAMLTELSQQHPDVVTELEATLAIPGATTSPDNWIIQSMIRAWEDVEQTPHEPFLNMSGYTDLSVIRQWGVPAARLGVPFRHQEPDPEDSLPMNRVHLDDCYRLIQVLIRSAIDTCSRPIEITQQYQ | not soluble
19 | MRGSHHHHHHGSGKSYPTVSADYQKAVEKAKKKLRGFIAEKRCAPLMLRLAWHSAGTFDKGTKTGGPFGTIKHPAELAHSANNGLDIAVRLLEPLKAEFPILSYADFYQLAGVVAVEVTGGPEVPFHPGREDKPEPPPEGRLPDATKGSDHLRDVFGKAMGLTDQDIVALSGGHTIGAAHKERSGFEGPWTSNPLIFDNSYFTELLSGEKEGLLQLPSDKALLSDPVFRPLVDKYAADEDAFFADYAEAHQKLSELGFADAHEM | soluble
